{"source": "patent US20250041437A1", "about": "“HUMANIZED MUC1 ANTIBODY AND ANTIBODY DRUG CONJUGATE” (Sun Pharma Advanced Research Company Limited, priority 2023, published 2025)", "molecules": {"B1": {"name": "HM3 LM3: variant of SP66; VH HM3 SEQ ID NO: 9, VL LM3 SEQ ID NO: 14 (antibody, V domains shown)", "VH": "EIQLVQSGAEVKKPGSSVKVSCKVTGHSITRGSSWHWMRQAPGQGLEWIGYIHYGGGTSYNPSLKSRATLTRDTSTNTAYMELSSLRSEDTAFYFCARYSYDITYRWFFDVWGQGTLVTVSS", "VL": "DIQMTQSPSTLSASVGDRVTITCRASQNIGTSIHWYQQKPGKAPKLLIKYASESISGVPSRFSGSGSGTEFTLTISSLQPDDFATYYCQQNNNWPLTFGQGTKVEVK"}, "B2": {"name": "HM4 LM2: variant of SP66; VH HM4 SEQ ID NO: 10, VL LM2 SEQ ID NO: 13 (antibody, V domains shown)", "VH": "B1 VH with A79F", "VL": "B1 VL with Y50R"}, "B3": {"name": "HM2 LM3: variant of SP66; VH HM2 SEQ ID NO: 8, VL LM3 SEQ ID NO: 14 (antibody, V domains shown)", "VH": "B1 VH with A68I, L70I", "VL": "B1 VL"}, "B4": {"name": "HM2 LM2: variant of SP66; VH HM2 SEQ ID NO: 8, VL LM2 SEQ ID NO: 13 (antibody, V domains shown)", "VH": "B1 VH with A68I, L70I", "VL": "B1 VL with Y50R"}, "B5": {"name": "HM5 LM3: variant of SP66; VH HM5 SEQ ID NO: 11, VL LM3 SEQ ID NO: 14 (antibody, V domains shown)", "VH": "B1 VH with A68I, L70I, A79F", "VL": "B1 VL"}, "B6": {"name": "HM5 LM2: variant of SP66; VH HM5 SEQ ID NO: 11, VL LM2 SEQ ID NO: 13 (antibody, V domains shown)", "VH": "B1 VH with A68I, L70I, A79F", "VL": "B1 VL with Y50R"}, "B7": {"name": "HM3 LM2: variant of SP66; VH HM3 SEQ ID NO: 9, VL LM2 SEQ ID NO: 13 (antibody, V domains shown)", "VH": "B1 VH", "VL": "B1 VL with Y50R"}, "B8": {"name": "HM4 LM3: variant of SP66; VH HM4 SEQ ID NO: 10, VL LM3 SEQ ID NO: 14 (antibody, V domains shown)", "VH": "B1 VH with A79F", "VL": "B1 VL"}, "B9": {"name": "chi 5F3: chimeric anti-MUC1 SEA antibody of WO 2021/186427; variable regions SEQ ID NOs: 42 and 43; parent of the humanized antibodies (antibody, V domains shown)", "VH": "MRVLILLCLFTAFPGVLSDVQVQESGPDLVKPSQSLSLTCTVTGHSITRGSSWHWIRQFPGNKLEWMGYIHYGGGTSYNPSLKSRISITRDTSKNQFFLQLNSVTTEDTATFFCARYSYDITYRWFFDVWGAGTTVIVSS", "VL": "MVSTPQFLVFLLFWIPASRGDILLTQSPAILSVSPGERVSFSCRASQNIGTSIHWYQQRKNGSPRLLIKYASESISGIPSRFSGSGSGTDFTLSINSVESEDMADYYCQQNNNWPLTFGAGTKLELK", "notes": "chimeric anti-MUC1 SEA antibody of WO 2021/186427; parent of the humanized antibodies"}}, "note": "Positions count from the first letter of the chain named.", "data": [{"biological_target": "T1, recombinant human MUC1-SEA (Homo sapiens, UniProt P15941)", "T1 construct": "on recombinant human MUC1-SEA on SPR; purchased Acrobiosystems MU1-H52H9", "T1 sequence (P15941 1039-1148 limits assumed)": "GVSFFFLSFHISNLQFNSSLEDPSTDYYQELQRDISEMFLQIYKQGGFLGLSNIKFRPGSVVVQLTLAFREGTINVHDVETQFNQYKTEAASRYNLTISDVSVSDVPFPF", "assay": "Binding strength by Surface Plasmon Resonance (SPR)", "conditions": "Table 2, variants of humanized anti-MUC1 5F3 mAb", "protocol": "Binding strength assessment using Surface Plasmon Resonance (SPR): MUC1 antigen (Acrobiosystems, Cat: MU1-H52H9) was captured on the anti-His immobilized on CM5 chip at 5 μl/min flow rate for 60 s. Post this concentration range of 0-50 nM of antibody or ADC is passed over MUC1 antigen at a flow rate of 30 μl/min flow rate for 120 s, keeping dissociation time of 1800 s at 25°. The dose response generated is evaluated on BIAevaluation software for the calculation of affinity of antibody to antigen as measured by dissociation constant (KD).", "units": {"ka": "M⁻¹ s⁻¹"}, "values": [{"molecule": "B1", "ka": "4.47e+07"}, {"molecule": "B2", "ka": "4.08e+06"}, {"molecule": "B3", "ka": "3.14e+06"}, {"molecule": "B4", "ka": "1.77e+06"}, {"molecule": "B5", "ka": "3.97e+06"}, {"molecule": "B6", "ka": "4.8e+06"}, {"molecule": "B7", "ka": "2.65e+06"}, {"molecule": "B8", "ka": "2.88e+06"}, {"molecule": "B9", "ka": "4.39e+06"}]}, {"biological_target": "T2, MUC1-X-FL-1116 (R1108A, E1109A, N1113A, D1116A) (Homo sapiens, UniProt P15941, D1116A/E1109A/N1113A/R1108A)", "T2 construct": "wild-type MUC1-X extracellular domain (MUC1-X-FL-WT); His (implied by Ni-NTA purification; pET30a(+) vector); made in house; host or cells: E. coli (pET30a(+))", "T2 sequence (P15941 24-115 isoform P15941-8 limits assumed)": "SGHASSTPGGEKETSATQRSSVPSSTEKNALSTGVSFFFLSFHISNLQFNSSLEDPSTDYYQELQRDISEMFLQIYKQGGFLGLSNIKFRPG", "T2 sequence (P15941 1098-1158 R1108A/E1109A/N1113A/D1116A limits assumed)": "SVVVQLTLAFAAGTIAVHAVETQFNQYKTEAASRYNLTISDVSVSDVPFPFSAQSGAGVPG", "assay": "Epitope mapping ELISA, mutant MUC1-X-FL-1116", "format": "binding", "conditions": "mutation at position 1116", "values": [{"molecule": "B9", "binding to MUC1 mutant (in words)": "maintained"}]}, {"biological_target": "T3, MUC1-X-FL-1118 (R1108A, E1109A, N1113A, E1118A) (Homo sapiens, UniProt P15941, E1109A/E1118A/N1113A/R1108A)", "T3 construct": "wild-type MUC1-X extracellular domain (MUC1-X-FL-WT); His (implied by Ni-NTA purification; pET30a(+) vector); made in house; host or cells: E. coli (pET30a(+))", "T3 sequence (P15941 24-115 isoform P15941-8 limits assumed)": "T2 sequence (P15941 24-115 isoform P15941-8 limits assumed)", "T3 sequence (P15941 1098-1158 R1108A/E1109A/N1113A/E1118A limits assumed)": "T2 sequence (P15941 1098-1158 R1108A/E1109A/N1113A/D1116A limits assumed) with A19D, E21A", "assay": "Epitope mapping ELISA, mutant MUC1-X-FL-1118", "format": "binding", "conditions": "mutation at position 1118", "values": [{"molecule": "B9", "binding to MUC1 mutant (in words)": "lost"}]}]}
